# According to paper doi:10.1101/2023.07.08.548186 (bioRxiv, 2023):
# T1: ATG9A with N-terminal 6xHis and Twin-StrepII tags (human, UniProt Q7Z3C6 1-839)
# T1 sequence: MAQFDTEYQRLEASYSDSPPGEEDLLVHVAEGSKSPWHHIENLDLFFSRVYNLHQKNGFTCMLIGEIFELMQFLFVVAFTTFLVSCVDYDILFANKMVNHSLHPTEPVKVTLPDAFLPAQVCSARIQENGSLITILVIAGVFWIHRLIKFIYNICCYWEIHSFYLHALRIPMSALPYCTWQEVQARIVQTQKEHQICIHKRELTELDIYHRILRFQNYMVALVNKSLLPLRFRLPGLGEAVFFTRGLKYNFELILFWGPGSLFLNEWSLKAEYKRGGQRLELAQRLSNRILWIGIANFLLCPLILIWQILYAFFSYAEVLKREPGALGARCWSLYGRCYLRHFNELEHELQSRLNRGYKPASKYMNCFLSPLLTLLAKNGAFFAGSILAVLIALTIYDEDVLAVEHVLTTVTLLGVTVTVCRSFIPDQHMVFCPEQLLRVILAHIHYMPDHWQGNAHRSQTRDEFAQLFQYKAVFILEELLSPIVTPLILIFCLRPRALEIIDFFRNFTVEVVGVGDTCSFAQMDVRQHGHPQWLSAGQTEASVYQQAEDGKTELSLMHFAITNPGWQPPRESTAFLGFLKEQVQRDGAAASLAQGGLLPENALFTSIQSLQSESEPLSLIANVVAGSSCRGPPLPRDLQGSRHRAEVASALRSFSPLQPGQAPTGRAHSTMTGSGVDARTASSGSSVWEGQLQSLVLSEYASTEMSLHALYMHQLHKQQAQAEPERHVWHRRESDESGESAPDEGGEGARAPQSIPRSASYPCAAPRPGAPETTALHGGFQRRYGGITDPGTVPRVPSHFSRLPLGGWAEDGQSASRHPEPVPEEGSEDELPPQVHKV
# T2: ATG9A with N-terminal 6xHis and Twin-StrepII tags (human), Q7Z3C6
# T2 chain: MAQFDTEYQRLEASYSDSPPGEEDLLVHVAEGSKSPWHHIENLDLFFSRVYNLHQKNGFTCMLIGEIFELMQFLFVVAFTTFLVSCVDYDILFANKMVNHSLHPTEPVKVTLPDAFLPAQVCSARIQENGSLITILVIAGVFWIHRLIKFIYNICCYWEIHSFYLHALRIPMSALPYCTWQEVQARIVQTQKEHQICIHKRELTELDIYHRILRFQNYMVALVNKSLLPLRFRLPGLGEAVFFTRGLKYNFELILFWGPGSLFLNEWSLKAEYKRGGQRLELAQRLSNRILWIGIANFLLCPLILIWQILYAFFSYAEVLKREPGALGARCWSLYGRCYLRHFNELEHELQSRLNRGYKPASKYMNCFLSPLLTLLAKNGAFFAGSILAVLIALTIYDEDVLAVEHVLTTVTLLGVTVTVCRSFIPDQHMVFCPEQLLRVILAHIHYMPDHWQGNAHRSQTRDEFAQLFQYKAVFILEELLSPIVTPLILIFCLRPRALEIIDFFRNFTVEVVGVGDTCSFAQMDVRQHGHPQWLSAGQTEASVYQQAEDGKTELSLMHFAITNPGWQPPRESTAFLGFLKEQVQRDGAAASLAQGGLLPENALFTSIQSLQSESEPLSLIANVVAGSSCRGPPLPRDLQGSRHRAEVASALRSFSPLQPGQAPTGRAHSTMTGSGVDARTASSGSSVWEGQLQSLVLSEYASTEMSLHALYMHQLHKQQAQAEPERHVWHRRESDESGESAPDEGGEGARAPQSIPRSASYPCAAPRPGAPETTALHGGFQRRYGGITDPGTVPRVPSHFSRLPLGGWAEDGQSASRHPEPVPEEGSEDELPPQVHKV
# Tests used:
# [1] = target: T1, ATG9A with N-terminal 6xHis and …; assay: cryo-EM structure
# [2] = target: T2, ATG9A with N-terminal 6xHis and …; assay: cryo-EM structure; conditions: remark: other sources report otherwise
stoichiometry N [1],stoichiometry N [2],Binder
1 ATG2A per ATG9A trimer,–,"human ATG2A, full length (natural protein) MSRWLWPWSNCVKERVCRYLLHHYLGHFFQEHLSLDQLSLDLYKGSVALRDIHLEIWSVNEVLESMESPLELVEGFVGSIEVAVPWAALLTDHCTVRVSGLQLTLQPRRGPAPGAADSQSWASCMTTSLQLAQECLRDGLPEPSEPPQPLEGLEMFAQTIETVLRRIKVTFLDTVVRVEHSPGDGERGVAVEVRVQRLEYCDEAVRDPSQAPPVDVHQPPAFLHKLLQLAGVRLHYEELPAQEEPPEPPLQIGSCSGYMELMVKLKQNEAFPGPKLEVAGQLGSLHLLLTPRQLQQLQELLSAVSLTDHEGLADKLNKSRPLGAEDLWLIEQDLNQQLQAGAVAEPLSPDPLTNPLLNLDNTDLFFSMAGLTSSVASALSELSLSDVDLASSVRSDMASRRLSAQAHPAGKMAPNPLLDTMRPDSLLKMTLGGVTLTLLQTSAPSSGPPDLATHFFTEFDATKDGPFGSRDFHHLRPRFQRACPCSHVRLTGTAVQLSWELRTGSRGRRTTSMEVHFGQLEVLECLWPRGTSEPEYTEILTFPGTLGSQASARPCAHLRHTQILRRVPKSRPRRSVACHCHSELALDLANFQADVELGALDRLAALLRLATVPAEPPAGLLTEPLPAMEQQTVFRLSAPRATLRLRFPIADLRPEPDPWAGQAVRAEQLRLELSEPQFRSELSSGPGPPVPTHLELTCSDLHGIYEDGGKPPVPCLRVSKALDPKSTGRKYFLPQVVVTVNPQSSSTQWEVAPEKGEELELSVESPCELREPEPSPFSSKRTMYETEEMVIPGDPEEMRTFQSRTLALSRCSLEVILPSVHIFLPSKEVYESIYNRINNDLLMWEPADLLPTPDPAAQPSGFPGPSGFWHDSFKMCKSAFKLANCFDLTPDSDSDDEDAHFFSVGASGGPQAAAPEAPSLHLQSTFSTLVTVLKGRITALCETKDEGGKRLEAVHGELVLDMEHGTLFSVSQYCGQPGLGYFCLEAEKATLYHRAAVDDYPLPSHLDLPSFAPPAQLAPTIYPSEEGVTERGASGRKGQGRGPHMLSTAVRIHLDPHKNVKEFLVTLRLHKATLRHYMALPEQSWHSQLLEFLDVLDDPVLGYLPPTVITILHTHLFSCSVDYRPLYLPVRVLITAETFTLSSNIIMDTSTFLLRFILDDSALYLSDKCEVETLDLRRDYVCVLDVDLLELVIKTWKGSTEGKLSQPLFELRCSNNVVHVHSCADSCALLVNLLQYVMSTGDLHPPPRPPSPTEIAGQKLSESPASLPSCPPVETALINQRDLADALLDTERSLRELAQPSGGHLPQASPISVYLFPGERSGAPPPSPPVGGPAGSLGSCSEEKEDEREEEGDGDTLDSDEFCILDAPGLGIPPRDGEPVVTQLHPGPIVVRDGYFSRPIGSTDLLRAPAHFPVPSTRVVLREVSLVWHLYGGRDFGPHPGHRARTGLSGPRSSPSRCSGPNRPQNSWRTQGGSGRQHHVLMEIQLSKVSFQHEVYPAEPATGPAAPSQELEERPLSRQVFIVQELEVRDRLASSQINKFLYLHTSERMPRRAHSNMLTIKALHVAPTTNLGGPECCLRVSLMPLRLNVDQDALFFLKDFFTSLVAGINPVVPGETSAEARPETRAQPSSPLEGQAEGVETTGSQEAPGGGHSPSPPDQQPIYFREFRFTSEVPIWLDYHGKHVTMDQVGTFAGLLIGLAQLNCSELKLKRLCCRHGLLGVDKVLGYALNEWLQDIRKNQLPGLLGGVGPMHSVVQLFQGFRDLLWLPIEQYRKDGRLMRGLQRGAASFGSSTASAALELSNRLVQAIQATAETVYDILSPAAPVSRSLQDKRSARRLRRGQQPADLREGVAKAYDTVREGILDTAQTICDVASRGHEQKGLTGAVGGVIRQLPPTVVKPLILATEATSSLLGGMRNQIVPDAHKDHALKWRSDSAQD"
–,3,"ATG9A with N-terminal 6xHis and Twin-StrepII tags, Q7Z3C6 1-839 (natural protein) MAQFDTEYQRLEASYSDSPPGEEDLLVHVAEGSKSPWHHIENLDLFFSRVYNLHQKNGFTCMLIGEIFELMQFLFVVAFTTFLVSCVDYDILFANKMVNHSLHPTEPVKVTLPDAFLPAQVCSARIQENGSLITILVIAGVFWIHRLIKFIYNICCYWEIHSFYLHALRIPMSALPYCTWQEVQARIVQTQKEHQICIHKRELTELDIYHRILRFQNYMVALVNKSLLPLRFRLPGLGEAVFFTRGLKYNFELILFWGPGSLFLNEWSLKAEYKRGGQRLELAQRLSNRILWIGIANFLLCPLILIWQILYAFFSYAEVLKREPGALGARCWSLYGRCYLRHFNELEHELQSRLNRGYKPASKYMNCFLSPLLTLLAKNGAFFAGSILAVLIALTIYDEDVLAVEHVLTTVTLLGVTVTVCRSFIPDQHMVFCPEQLLRVILAHIHYMPDHWQGNAHRSQTRDEFAQLFQYKAVFILEELLSPIVTPLILIFCLRPRALEIIDFFRNFTVEVVGVGDTCSFAQMDVRQHGHPQWLSAGQTEASVYQQAEDGKTELSLMHFAITNPGWQPPRESTAFLGFLKEQVQRDGAAASLAQGGLLPENALFTSIQSLQSESEPLSLIANVVAGSSCRGPPLPRDLQGSRHRAEVASALRSFSPLQPGQAPTGRAHSTMTGSGVDARTASSGSSVWEGQLQSLVLSEYASTEMSLHALYMHQLHKQQAQAEPERHVWHRRESDESGESAPDEGGEGARAPQSIPRSASYPCAAPRPGAPETTALHGGFQRRYGGITDPGTVPRVPSHFSRLPLGGWAEDGQSASRHPEPVPEEGSEDELPPQVHKV"
